According to patent US5766897A, “Cysteine-pegylated proteins” (Incyte Pharmaceuticals, Inc., priority 1995, dated 1998):

Target: Thrombin (Homo sapiens, UniProt P00734)
Test: thrombin inhibition activity assay (D.4), specific activity
Type: biochemical
Details: for ACTIVITY, AFTER PEG MODIFICATION: after cysteine-PEGylation with Maleimido-PEG; for REL TO WT, BEFORE PEG MODIFICATION: activity relative to wild type PN-1; for REL TO ACTIVITY BEFORE PEG, AFTER PEG MODIFICATION: cysteine-PEGylated protein relative to same protein before PEGylation; for REL TO WT, AFTER PEG MODIFICATION: cysteine-PEGylated protein relative to wild type PN-1
Description: Refolded or soluble protein was tested for capacity to inhibit thrombin in a standard assay. Briefly, serial 2-fold dilutions of PN-1 variant were added to microtiter plate wells (50 μl/well), followed by 50 μl of a 30 μg/ml heparin solution, followed by 1 NIH unit of thrombin in 50 μl. These were allowed to incubate at 25° C. for 15 minutes. Residual thrombin activity was measured by the addition of 50 μl S-2238 (Kabi Pharmaceuticals) at 0.625 mg/ml. PN-1 variants were tested for their ability to inhibit urokinase using the substrate S-2444, plasmin using the substrate S-2390, tPA using the substrate S2288, Factor Xa using the substrate S-2222 or S-2765, kallikrein using the substrate S-2302, human neutrophil elastase using s-AAPV-pna (Sigma), cathepsin G using s-AAPF-pna (Sigma) in a similar manner, with or without the addition of heparin.
Each of the PN-1 site-directed mutant proteins, as well as wild type PN-1, were modified by cysteine-PEGylation using the protocol described in F.2. The activity of wild type PN-1, each of the PN-1 site-directed mutants, and the cysteine-PEGylated wild type and mutant proteins was determined using the assay described in D.4.

Molecule | specific activity vs thrombin and association kinetics, including rate enhancement effect of heparin (compared with authentic PN-1) | ACTIVITY, AFTER PEG MODIFICATION | SPECIFIC ACTIVITY, BEFORE PEG MODIFICATION | REL TO WT, BEFORE PEG MODIFICATION | REL TO ACTIVITY BEFORE PEG, AFTER PEG MODIFICATION | REL TO WT, AFTER PEG MODIFICATION
PN-1 produced in insect cells: glycosylated PN-1 produced in insect cells using a baculovirus expression system (protein, UniProt P07093 20-398, looked up, insect cell glycosylated, glycosylated PN-1 produced in insect cells using a baculovirus expression system) Glia-derived nexin: SHFNPLSLEELGSNTGIQVFNQIVKSRPHDNIVISPHGIASVLGMLQLGADGRTKKQLAMVMRYGVNGVGKILKKINKAIVSKKNKDIVTVANAVFVKNASEIEVPFVTRNKDVFQCEVRNVNFEDPASACDSINAWVKNETRDMIDNLLSPDLIDGVLTRLVLVNAVYFKGLWKSRFQPENTKKRTFVAADGKSYQVPMLAQLSVFRCGSTSAPNDLWYNFIELPYHGESISMLIALPTESSTPLSAIIPHISTKTIDSWMSIMVPKRVQVILPKFTAVAQTDLKEPLKVLGITDMFDSSKANFAKITTGSENLHVSHILQKAKIEVSEDGTKASAATTAILIARSSPPWFIVDRPFLFFIRHNPTGAVLFMGQINKP | indistinguishable from authentic PN-1 | – | – | – | – | –
N85C (conjugate, UniProt P07093 20-398, looked up, variant N85C, PEG) Glia-derived nexin: SHFNPLSLEELGSNTGIQVFNQIVKSRPHDNIVISPHGIASVLGMLQLGADGRTKKQLAMVMRYGVNGVGKILKKINKAIVSKKCKDIVTVANAVFVKNASEIEVPFVTRNKDVFQCEVRNVNFEDPASACDSINAWVKNETRDMIDNLLSPDLIDGVLTRLVLVNAVYFKGLWKSRFQPENTKKRTFVAADGKSYQVPMLAQLSVFRCGSTSAPNDLWYNFIELPYHGESISMLIALPTESSTPLSAIIPHISTKTIDSWMSIMVPKRVQVILPKFTAVAQTDLKEPLKVLGITDMFDSSKANFAKITTGSENLHVSHILQKAKIEVSEDGTKASAATTAILIARSSPPWFIVDRPFLFFIRHNPTGAVLFMGQINKP | – | 0.040 NIH units of thrombin inhibited per μg PN1 (variant) | 0.033 NIH units of thrombin inhibited per μg PN1 (variant) | 0.066 | 1.2 | 0.080
D192C (conjugate, UniProt P07093 20-398, looked up, variant D192C, PEG) Glia-derived nexin: SHFNPLSLEELGSNTGIQVFNQIVKSRPHDNIVISPHGIASVLGMLQLGADGRTKKQLAMVMRYGVNGVGKILKKINKAIVSKKNKDIVTVANAVFVKNASEIEVPFVTRNKDVFQCEVRNVNFEDPASACDSINAWVKNETRDMIDNLLSPDLIDGVLTRLVLVNAVYFKGLWKSRFQPENTKKRTFVAACGKSYQVPMLAQLSVFRCGSTSAPNDLWYNFIELPYHGESISMLIALPTESSTPLSAIIPHISTKTIDSWMSIMVPKRVQVILPKFTAVAQTDLKEPLKVLGITDMFDSSKANFAKITTGSENLHVSHILQKAKIEVSEDGTKASAATTAILIARSSPPWFIVDRPFLFFIRHNPTGAVLFMGQINKP | – | 0.91 NIH units of thrombin inhibited per μg PN1 (variant) | 0.045 NIH units of thrombin inhibited per μg PN1 (variant) | 0.091 | 2 | 0.18
N99C (conjugate, UniProt P07093 20-398, looked up, variant N99C, PEG) Glia-derived nexin: SHFNPLSLEELGSNTGIQVFNQIVKSRPHDNIVISPHGIASVLGMLQLGADGRTKKQLAMVMRYGVNGVGKILKKINKAIVSKKNKDIVTVANAVFVKCASEIEVPFVTRNKDVFQCEVRNVNFEDPASACDSINAWVKNETRDMIDNLLSPDLIDGVLTRLVLVNAVYFKGLWKSRFQPENTKKRTFVAADGKSYQVPMLAQLSVFRCGSTSAPNDLWYNFIELPYHGESISMLIALPTESSTPLSAIIPHISTKTIDSWMSIMVPKRVQVILPKFTAVAQTDLKEPLKVLGITDMFDSSKANFAKITTGSENLHVSHILQKAKIEVSEDGTKASAATTAILIARSSPPWFIVDRPFLFFIRHNPTGAVLFMGQINKP | – | 0.50 NIH units of thrombin inhibited per μg PN1 (variant) | 0.20 NIH units of thrombin inhibited per μg PN1 (variant) | 0.40 | 2.5 | 1.0
E125C (conjugate, UniProt P07093 20-398, looked up, variant E125C, PEG) Glia-derived nexin: SHFNPLSLEELGSNTGIQVFNQIVKSRPHDNIVISPHGIASVLGMLQLGADGRTKKQLAMVMRYGVNGVGKILKKINKAIVSKKNKDIVTVANAVFVKNASEIEVPFVTRNKDVFQCEVRNVNFCDPASACDSINAWVKNETRDMIDNLLSPDLIDGVLTRLVLVNAVYFKGLWKSRFQPENTKKRTFVAADGKSYQVPMLAQLSVFRCGSTSAPNDLWYNFIELPYHGESISMLIALPTESSTPLSAIIPHISTKTIDSWMSIMVPKRVQVILPKFTAVAQTDLKEPLKVLGITDMFDSSKANFAKITTGSENLHVSHILQKAKIEVSEDGTKASAATTAILIARSSPPWFIVDRPFLFFIRHNPTGAVLFMGQINKP | – | 0.15 NIH units of thrombin inhibited per μg PN1 (variant) | 0.095 NIH units of thrombin inhibited per μg PN1 (variant) | 0.19 | 1.57 | 0.3
G52C (conjugate, UniProt P07093 20-398, looked up, variant G52C, PEG) Glia-derived nexin: SHFNPLSLEELGSNTGIQVFNQIVKSRPHDNIVISPHGIASVLGMLQLGADCRTKKQLAMVMRYGVNGVGKILKKINKAIVSKKNKDIVTVANAVFVKNASEIEVPFVTRNKDVFQCEVRNVNFEDPASACDSINAWVKNETRDMIDNLLSPDLIDGVLTRLVLVNAVYFKGLWKSRFQPENTKKRTFVAADGKSYQVPMLAQLSVFRCGSTSAPNDLWYNFIELPYHGESISMLIALPTESSTPLSAIIPHISTKTIDSWMSIMVPKRVQVILPKFTAVAQTDLKEPLKVLGITDMFDSSKANFAKITTGSENLHVSHILQKAKIEVSEDGTKASAATTAILIARSSPPWFIVDRPFLFFIRHNPTGAVLFMGQINKP | – | 0.05 NIH units of thrombin inhibited per μg PN1 (variant) | 0.024 NIH units of thrombin inhibited per μg PN1 (variant) | 0.048 | 2.1 | 0.1
R63C (conjugate, UniProt P07093 20-398, looked up, variant R63C, PEG) Glia-derived nexin: SHFNPLSLEELGSNTGIQVFNQIVKSRPHDNIVISPHGIASVLGMLQLGADGRTKKQLAMVMCYGVNGVGKILKKINKAIVSKKNKDIVTVANAVFVKNASEIEVPFVTRNKDVFQCEVRNVNFEDPASACDSINAWVKNETRDMIDNLLSPDLIDGVLTRLVLVNAVYFKGLWKSRFQPENTKKRTFVAADGKSYQVPMLAQLSVFRCGSTSAPNDLWYNFIELPYHGESISMLIALPTESSTPLSAIIPHISTKTIDSWMSIMVPKRVQVILPKFTAVAQTDLKEPLKVLGITDMFDSSKANFAKITTGSENLHVSHILQKAKIEVSEDGTKASAATTAILIARSSPPWFIVDRPFLFFIRHNPTGAVLFMGQINKP | – | 0.125 NIH units of thrombin inhibited per μg PN1 (variant) | 0.050 NIH units of thrombin inhibited per μg PN1 (variant) | 0.10 | 2.5 | 0.25
D147C (conjugate, UniProt P07093 20-398, looked up, variant D147C, PEG) Glia-derived nexin: SHFNPLSLEELGSNTGIQVFNQIVKSRPHDNIVISPHGIASVLGMLQLGADGRTKKQLAMVMRYGVNGVGKILKKINKAIVSKKNKDIVTVANAVFVKNASEIEVPFVTRNKDVFQCEVRNVNFEDPASACDSINAWVKNETRDMICNLLSPDLIDGVLTRLVLVNAVYFKGLWKSRFQPENTKKRTFVAADGKSYQVPMLAQLSVFRCGSTSAPNDLWYNFIELPYHGESISMLIALPTESSTPLSAIIPHISTKTIDSWMSIMVPKRVQVILPKFTAVAQTDLKEPLKVLGITDMFDSSKANFAKITTGSENLHVSHILQKAKIEVSEDGTKASAATTAILIARSSPPWFIVDRPFLFFIRHNPTGAVLFMGQINKP | – | 0.125 NIH units of thrombin inhibited per μg PN1 (variant) | 0.063 NIH units of thrombin inhibited per μg PN1 (variant) | 0.125 | 2 | 0.25
S1C (conjugate, UniProt P07093 20-398, looked up, variant S1C, PEG) Glia-derived nexin: CHFNPLSLEELGSNTGIQVFNQIVKSRPHDNIVISPHGIASVLGMLQLGADGRTKKQLAMVMRYGVNGVGKILKKINKAIVSKKNKDIVTVANAVFVKNASEIEVPFVTRNKDVFQCEVRNVNFEDPASACDSINAWVKNETRDMIDNLLSPDLIDGVLTRLVLVNAVYFKGLWKSRFQPENTKKRTFVAADGKSYQVPMLAQLSVFRCGSTSAPNDLWYNFIELPYHGESISMLIALPTESSTPLSAIIPHISTKTIDSWMSIMVPKRVQVILPKFTAVAQTDLKEPLKVLGITDMFDSSKANFAKITTGSENLHVSHILQKAKIEVSEDGTKASAATTAILIARSSPPWFIVDRPFLFFIRHNPTGAVLFMGQINKP | – | 0.25 NIH units of thrombin inhibited per μg PN1 (variant) | 0.10 NIH units of thrombin inhibited per μg PN1 (variant) | 0.20 | 2.5 | 0.50
